Data reported in article PMC2139871.

Experiments:
[1] = target: actin-related protein Arp1 of the dynactin complex (mouse (endogenous in J774)) (UniProt P61164); assay: co-IP
[2] = target: cytoplasmic dynein 74-kD intermediate chain (mouse (endogenous in J774)) (UniProt O88487); assay: co-IP
UniProt O88487, sequence (O88487 whole entry): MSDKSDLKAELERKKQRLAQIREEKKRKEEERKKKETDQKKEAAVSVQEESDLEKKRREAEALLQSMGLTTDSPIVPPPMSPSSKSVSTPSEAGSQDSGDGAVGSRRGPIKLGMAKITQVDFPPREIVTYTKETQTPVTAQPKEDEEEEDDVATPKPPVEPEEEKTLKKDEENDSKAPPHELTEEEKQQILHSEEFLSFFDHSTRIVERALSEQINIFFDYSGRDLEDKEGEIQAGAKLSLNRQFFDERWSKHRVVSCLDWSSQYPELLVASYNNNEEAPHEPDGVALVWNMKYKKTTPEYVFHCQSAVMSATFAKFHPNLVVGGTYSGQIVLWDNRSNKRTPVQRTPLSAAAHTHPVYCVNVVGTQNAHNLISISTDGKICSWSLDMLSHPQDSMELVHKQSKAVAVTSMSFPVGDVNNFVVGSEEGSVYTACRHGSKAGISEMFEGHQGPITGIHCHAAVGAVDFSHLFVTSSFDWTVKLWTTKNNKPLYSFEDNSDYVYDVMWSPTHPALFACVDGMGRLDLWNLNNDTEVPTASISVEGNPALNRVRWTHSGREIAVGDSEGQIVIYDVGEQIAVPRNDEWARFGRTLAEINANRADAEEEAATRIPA

UniProt P61164, sequence (P61164 whole entry, one chain of several): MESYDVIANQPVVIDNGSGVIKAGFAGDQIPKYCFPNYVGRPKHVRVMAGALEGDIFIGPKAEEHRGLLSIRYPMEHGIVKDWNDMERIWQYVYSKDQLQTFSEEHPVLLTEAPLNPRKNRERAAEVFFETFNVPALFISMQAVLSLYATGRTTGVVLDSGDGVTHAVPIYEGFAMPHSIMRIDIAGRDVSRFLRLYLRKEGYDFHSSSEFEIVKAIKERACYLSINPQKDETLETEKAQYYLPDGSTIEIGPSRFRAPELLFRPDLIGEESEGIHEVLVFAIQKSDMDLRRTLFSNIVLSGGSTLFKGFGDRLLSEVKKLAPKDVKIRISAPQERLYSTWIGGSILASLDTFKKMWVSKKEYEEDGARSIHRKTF

percent removed from cytosol by immunodepletion of the bait [1] [%]	percent removed from cytosol by immunodepletion of the bait [2] [%]	Substance
95		dynactin subunit p150^Glued (from UniProt O08788 1-1281) (natural protein)
	80	cytoplasmic dynein heavy chain (from UniProt Q9JHU4 1-4644) (natural protein)
